In patent US20090269336A1 (TAIWAN LIPOSOME, published 2009):

Tests used:
[1] = target: T1, recombinant VEGF3-114 (human, UniProt P15692 209-320); assay: cell-based or functional assay
T1 sequence: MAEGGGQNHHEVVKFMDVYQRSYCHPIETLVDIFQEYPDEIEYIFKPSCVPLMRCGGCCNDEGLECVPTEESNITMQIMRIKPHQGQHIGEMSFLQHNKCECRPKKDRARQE

[2] = target: T2, VEGF3-33 (human); assay: Western blot of E. coli lysates
T2 construct: Truncated VEGF fragment expressed in E. coli as a fusion protein detected by anti-penta-His; Tested denatured in cell lysate by Western blot
T2 chain: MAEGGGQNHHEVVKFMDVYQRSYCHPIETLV
Description: (§1) To elucidate the binding epitope of VC300 mAb, the VEGF₃₋₁₁₄ (SEQ ID NO: 8) and five VEGF fragments, VEGF₃₋₃₃, VEGF₃₋₆₃, VEGF₃₋₉₃, VEGF₃₋₁₀₀, and VEGF₃₋₁₀₇ (see FIG. 1B), were used in the mapping. Nucleotide sequences of all these constructs were verified by DNA sequencing. Expression profiles of fusion proteins were analyzed by 12.5% SDS-PAGE and Western blot analysis with anti-penta-His monoclonal antibody (Qiagen, Valencia, Calif.). The lysates were used in verification of the binding epitope of VC300 mAb.
(§2) E. coli cells containing various truncated fragments of VEGF cDNA in expression vector were induced to express recombinant proteins with 0.4 mM isopropyl-β-D-thiogalactopyranoside (IPTG, Sigma-Aldrich, St. Louis, Mo.) at 37° C. for 3 h and the cells were harvested by centrifugation at 10,000 rpm for 2 min. The cell pellets were suspended and lysed with protein sample buffer, boiled for 10 min and analyzed by a 12.5% SDS-PAGE. For Western blot analysis, the gels were electroblotted onto PVDF membranes and the membranes were blocked with 5% skim milk in phosphate-buffered saline, pH 7.4 containing 0.05% Tween 20 at RT for 1 h, probed with a 1:1000 dilution of anti-penta-His monoclonal antibody or VC300 mAb followed by reaction with HRP-conjugated goat anti-mouse immunoglobulin (Chemicon Int., Temecula, Calif.). The binding reaction was detected by the addition of the diaminobenzidine (Sigma-Aldrich, St. Louis, Mo.) color development reagent, 0.05% diaminobenzidine, 0.005% hydrogen peroxide in 0.1 M Tris-HCl, pH 7.4.

[3] = target: T3, VEGF3-63 (human, UniProt P15692 209-269); assay: Western blot of E. coli lysates
T3 construct: Truncated VEGF fragment expressed in E. coli as a fusion protein detected by anti-penta-His
T3 sequence: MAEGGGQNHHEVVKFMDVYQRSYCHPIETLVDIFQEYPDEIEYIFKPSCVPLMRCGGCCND
Description: as §1, §2

[4] = target: T4, VEGF3-93 (human, UniProt P15692 209-299); assay: Western blot of E. coli lysates
T4 construct: Truncated VEGF fragment expressed in E. coli as a fusion protein detected by anti-penta-His
T4 sequence: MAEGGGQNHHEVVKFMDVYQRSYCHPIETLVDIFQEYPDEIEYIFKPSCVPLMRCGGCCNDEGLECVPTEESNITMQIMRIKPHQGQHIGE
Description: as §1, §2

[5] = target: T5, VEGF3-100 (human, UniProt P15692 209-306); assay: Western blot of E. coli lysates
T5 construct: Truncated VEGF fragment expressed in E. coli as a fusion protein detected by anti-penta-His
T5 sequence: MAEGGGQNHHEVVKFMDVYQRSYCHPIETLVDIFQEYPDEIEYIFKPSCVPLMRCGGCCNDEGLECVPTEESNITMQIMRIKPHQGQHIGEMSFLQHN
Description: as §1, §2

[6] = target: T1, recombinant VEGF3-114; assay: competitive ELISA: VC300 mAb equilibrated with soluble VEGF3-114, then added to wells coated with VEGF3-114
Description: The VC300 mAb was purified from mice ascites by ammonium sulfate precipitation and CM Sepharsoe chromatography (GE Healthcare, Piscataway, N.J.). The purified VC300 mAb was analyzed by 7.5% SDS-PAGE and the protein concentration was quantitated by the absorbance at 280 nm. Isotype determination of VC300 mAb was carried out by a monoclonal antibody isotyping kit I obtained from PIERCE (Rockford, Ill., USA). The dissociation constant (Kd) of antigen-antibody interaction was determined by competitive ELISA [Lin et al., (1997) Anal. Biochem., 254: 9-17]. In brief, the antigen, VEGF₃₋₁₁₄, at various concentrations was incubated with the antibody, VC300 mAb at 4° C. for overnight to reach equilibrium. The mixtures were transferred to the wells coated with 3 μg/ml of VEGF₃₋₁₁₄ and incubated at room temperature for 1 h. […] Absorbance at 450 nm was measured and the Kd value was calculated as described previously.

- IC50 of inhibition of VEGF-induced HUVEC proliferation (BrdU incorporation, 13.6 ng/ml VEGF3-114) [1]: ~1 nM
- Kd [6]: ~2 nM
B1: VC300 mAb (antibody, IgG1, V domains shown)
VH: EIQLLQSGPELVKPGASVKISCKASGYSFTGYFMNWVMQSHGRTLEWIGRINPYTGETLYNQKFKDKATLTAEISSSTAHMELRSLASDDSAVYFCARRGYAGSGGIYSMDSWGPGTSVTVSS
VL: EIVLTQSPAIMSASLGERVTMTCTASSAVSSSYLHWYHQKPGSSPKLWIFSTSNLASGVPSRFTGSGSGTSYSLTISSVEAEDAATYYCHQYHRSPYTFGAGTKLELN
notes: Mouse hybridoma antibody (BALB/c), purified from mouse ascites; isotype determined to be IgG1; constant regions are not; also called anti-VEGF monoclonal antibody
- binding result [2]: no binding (tested: 1:1000 dilution of VC300 mAb)
- binding result [3]: no binding (tested: 1:1000 dilution of VC300 mAb)
- binding result [4]: no binding (tested: 1:1000 dilution of VC300 mAb)
- binding result [5]: no binding (tested: 1:1000 dilution of VC300 mAb)
